Measurements as given in patent US20250092156A1.

Target: FLAG-tagged WT RPTPα (WT-RPTPA, NM 008980.2, C-terminal FLAG) (mouse) (UniProt P18052)
Assay: FLIM-FRET, anti-HA A488 donor with anti-FLAG A568 acceptor; unquenched donor around 2.4 ns

HA-tagged WT RPTPα (WT-RPTPA, NM 008980.2, C-terminal HA), sequence (P18052 20-829): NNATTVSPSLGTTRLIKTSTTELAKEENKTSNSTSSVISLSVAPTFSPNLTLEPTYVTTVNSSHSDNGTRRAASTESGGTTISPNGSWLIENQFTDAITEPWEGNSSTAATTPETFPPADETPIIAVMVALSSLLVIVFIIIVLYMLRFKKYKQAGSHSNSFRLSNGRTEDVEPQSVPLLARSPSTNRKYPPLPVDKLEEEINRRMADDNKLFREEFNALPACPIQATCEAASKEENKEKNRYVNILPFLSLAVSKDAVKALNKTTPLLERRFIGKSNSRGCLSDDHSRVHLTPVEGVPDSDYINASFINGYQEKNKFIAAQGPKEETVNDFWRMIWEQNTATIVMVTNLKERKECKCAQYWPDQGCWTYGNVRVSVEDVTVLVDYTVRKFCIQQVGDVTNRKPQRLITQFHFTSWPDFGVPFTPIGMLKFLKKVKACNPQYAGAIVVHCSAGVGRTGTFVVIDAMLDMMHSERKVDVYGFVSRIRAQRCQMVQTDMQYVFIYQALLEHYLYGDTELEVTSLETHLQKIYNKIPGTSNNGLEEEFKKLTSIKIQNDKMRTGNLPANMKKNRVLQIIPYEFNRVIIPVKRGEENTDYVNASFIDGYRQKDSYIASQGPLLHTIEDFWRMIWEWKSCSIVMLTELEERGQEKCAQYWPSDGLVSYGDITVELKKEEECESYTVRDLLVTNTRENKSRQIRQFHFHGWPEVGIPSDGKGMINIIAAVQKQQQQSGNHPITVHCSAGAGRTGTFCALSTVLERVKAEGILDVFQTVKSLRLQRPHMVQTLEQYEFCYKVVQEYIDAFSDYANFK
FLAG-tagged WT RPTPα (WT-RPTPA, NM 008980.2, C-terminal FLAG) (mouse), sequence (P18052 20-829 limits assumed): as the sequence (P18052 20-829) above

donor fluorescence lifetime of quenched (H-FRET) population: 1.15 ns
Substance: HA-tagged WT RPTPα (WT-RPTPA, NM 008980.2, C-terminal HA) (from UniProt P18052 20-829) (receptor)
